Results reported in patent US20180273622A1 (published 2018).

Target: human CD3 (human, UniProt P07766 23-207; P09693 23-182; P04234 22-171; P20963 22-164)
Assay: flow cytometry, Jurkat T cells

human CD3, sequence (P07766 23-207, chain 1 of 4): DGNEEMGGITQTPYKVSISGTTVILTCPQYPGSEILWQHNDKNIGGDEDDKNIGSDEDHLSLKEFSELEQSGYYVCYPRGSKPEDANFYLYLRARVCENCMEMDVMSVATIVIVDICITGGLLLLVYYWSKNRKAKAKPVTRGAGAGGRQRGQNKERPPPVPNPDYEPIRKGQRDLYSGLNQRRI
human CD3, sequence (P09693 23-182, chain 2 of 4): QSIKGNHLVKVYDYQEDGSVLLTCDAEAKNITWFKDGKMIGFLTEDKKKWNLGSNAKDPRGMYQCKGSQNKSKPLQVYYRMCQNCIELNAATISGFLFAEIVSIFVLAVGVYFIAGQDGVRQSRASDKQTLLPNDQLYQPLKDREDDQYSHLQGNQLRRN
human CD3, sequence (P04234 22-171, chain 3 of 4): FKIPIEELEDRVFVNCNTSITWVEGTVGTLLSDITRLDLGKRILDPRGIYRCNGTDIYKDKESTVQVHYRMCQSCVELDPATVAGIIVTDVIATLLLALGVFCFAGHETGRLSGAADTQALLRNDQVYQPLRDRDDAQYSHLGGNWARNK
human CD3, sequence (P20963 22-164, chain 4 of 4): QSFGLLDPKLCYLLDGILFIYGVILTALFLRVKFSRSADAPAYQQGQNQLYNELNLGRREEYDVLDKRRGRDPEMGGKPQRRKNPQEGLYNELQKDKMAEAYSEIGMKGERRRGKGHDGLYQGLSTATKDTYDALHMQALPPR

B1: Fc DRA222 (TSC311 or TSC312) (Fc fusion)
chain: EPKSSDKTHTCPPCPAPEAAGAPSVFLFPPKPKDTLMISRTPEVTCVVVDVSHEDPEVKFNWYVDGVEVHNAKTKPREEQYNSTYRVVSVLTVLHQDWLNGKAYACAVSNKALPAPIEKTISKAKGQPREPQVYTLPPSRDELTKNQVSLTCLVKGFYPSDIAVEWESNGQPENNYKTTPPVLDSDGSFFLYSKLTVDKSRWQQGNVFSCSVMHEALHNHYTQKSLSLSPGQRHNNSSLNTGTQMAGHSPNSQVQLVESGGGVVQPGRSLRLSCKASGYTFTRSTMHWVRQAPGQGLEWIGYINPSSAYTNYNQKFKDRFTISADKSKSTAFLQMDSLRPEDTGVYFCARPQVHYDYNGFPYWGQGTPVTVSSGGGGSGGGGSGGGGSAQDIQMTQSPSSLSASVGDRVTMTCSASSSVSYMNWYQQKPGKAPKRWIYDSSKLASGVPARFSGSGSGTDYTLTISSLQPEDFATYYCQQWSRNPPTFGGGTKLQITSSS
Work on B1 yielded an EC50 of 1.7 nM.

B2: Fc H8L1 (TSC316) (Fc fusion)
chain: EPKSSDKTHTCPPCPAPEAAGAPSVFLFPPKPKDTLMISRTPEVTCVVVDVSHEDPEVKFNWYVDGVEVHNAKTKPREEQYNSTYRVVSVLTVLHQDWLNGKAYACAVSNKALPAPIEKTISKAKGQPREPQVYTLPPSRDELTKNQVSLTCLVKGFYPSDIAVEWESNGQPENNYKTTPPVLDSDGSFFLYSKLTVDKSRWQQGNVFSCSVMHEALHNHYTQKSLSLSPGQRHNNSSLNTGTQMAGHSPNSQVQLVQSGAEVKKPGASVKVSCKASGYTFTRSTMHWVRQAPGQGLEWMGYINPSSAYTNYNQKFKDRVTMTRDTSTSTVYMELSSLRSEDTAVYYCARPQVHYDYNGFPYWGQGTLVTVSSGGGGSGGGGSGGGGSGGGGSDIQMTQSPSSLSASVGDRVTMTCSASSSVSYMNWYQQKPGKAPKRWIYDSSKLASGVPARFSGSGSGTDYTLTISSLQPEDFATYYCQQWSRNPPTFGGGTKLQITSSS
With B2 the EC50 was 1.3 nM.

B3: Fc H7L1 (TSC313) (Fc fusion)
chain: EPKSSDKTHTCPPCPAPEAAGAPSVFLFPPKPKDTLMISRTPEVTCVVVDVSHEDPEVKFNWYVDGVEVHNAKTKPREEQYNSTYRVVSVLTVLHQDWLNGKAYACAVSNKALPAPIEKTISKAKGQPREPQVYTLPPSRDELTKNQVSLTCLVKGFYPSDIAVEWESNGQPENNYKTTPPVLDSDGSFFLYSKLTVDKSRWQQGNVFSCSVMHEALHNHYTQKSLSLSPGQRHNNSSLNTGTQMAGHSPNSQVQLVQSGAEVKKPGASVKVSCKASGYTFTRSTMHWVRQAPGQGLEWMGYINPSSAYTNYNQKFKDRVTMTRDTSISTAYMELSRLRSDDTAVYYCARPQVHYDYNGFPYWGQGTLVTVSSGGGGSGGGGSGGGGSGGGGSDIQMTQSPSSLSASVGDRVTMTCSASSSVSYMNWYQQKPGKAPKRWIYDSSKLASGVPARFSGSGSGTDYTLTISSLQPEDFATYYCQQWSRNPPTFGGGTKLQITSSS
With B3 the EC50 was 0.87 nM.
